± gives the standard deviation of the averaged measurements.
Columns and labels:
[1] = tested on: hTERT-HMEC; test: percentage of EdU-negative (G0-arrested) nuclei per well, 72 h; higher = more G0 arrest; conditions: reference: sequence is the full UniProt precursor, the tested protein was the secreted form or ectodomain
[2] = tested on: MCF7; test: as above; conditions: reference: sequence is the full UniProt precursor, the tested protein was the secreted form or ectodomain
[3] = protein concentration 0.0225 µM
[4] = protein concentration 0.03125 µM
[5] = protein concentration 0.3125 µM
[6] = protein concentration 0.02125 µM
[7] = protein concentration 0.2125 µM
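Further: secreted proteins added to cultured cells, EdU pulse at the end, nuclei found by Hoechst imaging, EdU status from nuclear versus surrounding ring intensity ratio, PBS as neutral control.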

Sequence | percentage of EdU-negative [1, 3] [%] | percentage of EdU-negative ([1]; protein concentration 0.225 µM) [%] | percentage of EdU-negative [2, 3] [%] | percentage of EdU-negative ([2]; protein concentration 0.225 µM) [%] | percentage of EdU-negative [1, 4] [%] | percentage of EdU-negative [1, 5] [%] | percentage of EdU-negative [2, 4] [%] | percentage of EdU-negative [2, 5] [%] | also measured
MDPKGLLSLTFVLFLSLAFGASYGTGGRMMNCPKILRQLGSKVLLPLTYERINKSMNKSIHIVVTMAKSLENSVENKIVSLDPSEAGPPRYLGDRYKFYLENLTLGIRESRKEDEGWYLMTLEKNVSVQRFCLQLRLYEQVSTPEIKVLNKTQENGTCTLILGCTVEKGDHVAYSWSEKAGTHPLNPANSSHLLSLTLGPQHADNIYICTVSNPISNNSQTFSPWPGCRTDPSETKPWAVYAGLLGGVIMILIMVVILQLRRRGKTNHYQTTVEKKSLTIYAQVQKPGPLQKKLDSFPAQDPCTTIYVAATEPVPESVQETNSITVYASVTLPES | 5.0759 ± 0.002 | 5.04 ± 0.53 | 24.3 ± 0.12 | 23.1 ± 0.27 | – | – | – | – | –
MDPKLGRMAASLLAVLLLLLERGMFSSPSPPPALLEKVFQYIDLHQDEFVQTLKEWVAIESDSVQPVPRFRQELFRMMAVAADTLQRLGARVASVDMGPQQLPDGQSLPIPPVILAELGSDPTKGTVCFYGHLDVQPADRGDGWLTDPYVLTEVDGKLYGRGATDNKGPVLAWINAVSAFRALEQDLPVNIKFIIEGMEEAGSVALEELVEKEKDRFFSGVDYIVISDNLWISQRKPAITYGTRGNSYFMVEVKCRDQDFHSGTFGGILHEPMADLVALLGSLVDSSGHILVPGIYDEVVPLTEEEINTYKAIHLDLEEYRNSSRVEKFLFDTKEEILMHLWRYPSLSIHGIEGAFDEPGTKTVIPGRVIGKFSIRLVPHMNVSAVEKQVTRHLEDVFSKRNSSNKMVVSMTLGLHPWIANIDDTQYLAAKRAIRTVFGTEPDMIRDGSTIPIAKMFQEIVHKSVVLIPLGAVDDGEHSQNEKINRWNYIEGTKLFAAFFLEMAQLH [Q96KN2] | – | – | – | – | 5.23 ± 0.23 | 5.9 ± 0.65 | 24.9 ± 0.15 | 23 ± 2.2 | –
MDPQCTMGLSNILFVMAFLLSGAAPLKIQAYFNETADLPCQFANSQNQSLSELVVFWQDQENLVLNEVYLGKEKFDSVHSKYMGRTSFDSDSWTLRLHNLQIKDKGLYQCIIHHKKPTGMIRIHQMNSELSVLANFSQPEIVPISNITENVYINLTCSSIHGYPEPKKMSVLLRTKNSTIEYDGVMQKSQDNVTELYDVSISLSVSFPDVTSNMTIFCILETDKTRLLSSPFSIELEDPQPPPDHIPWITAVLPTVIICVMVFCLILWKWKKKKRPRNSYKCGTNTMEREESEQTKKREKIHIPERSDEAQRVFKSSKTSSCDKSDTCF | 4.6 ± 0.096 | 6.71 ± 0.18 | 24 ± 1.6 | 25.9 ± 0.81 | – | – | – | – | –
MDPRKVNELRAFVKMCKQDPSVLHTEEMRFLREWVESMGGKVPPATQKAKSEENTKEEKPDSKKVEEDLKADEPSSEESDLEIDKEGVIEPDTDAPQEMGDENAEITEEMMDQANDKKVAAIEALNDGELQKAIDLFTDAIKLNPRLAILYAKRASVFVKLQKPNAAIRDCDRAIEINPDSAQPYKWRGKAHRLLGHWEEAAHDLALACKLDYDEDASAMLKEVQPRAQKIAEHRRKYERKREEREIKERIERVKKAREEHERAQREEEARRQSGAQYGSFPGGFPGGMPGNFPGGMPGMGGGMPGMAGMPGLNEILSDPEVLAAMQDPEVMVAFQDVAQNPANMSKYQSNPKVMNLISKLSAKFGGQA | – | – | – | – | – | – | – | – | percentage of EdU-negative [1, 6]: 4.96 ± 0.58%; percentage of EdU-negative [1, 7]: 5.35 ± 0.39%; percentage of EdU-negative [2, 6]: 24.8 ± 1.7%; percentage of EdU-negative [2, 7]: 27.4 ± 0.36%
MDPRLPAWALVLLGPALVFALGPAPTPEMREKLCGHHFVRALVRVCGGPRWSTEARRPATGGDRELLQWLERRHLLHGLVADSNLTLGPGLQPLPQTSHHHRHHRAAATNPARYCCLSGCTQQDLLTLCPY | 6.04 ± 0.67 | 5.1 ± 0.54 | 27 ± 2.5 | 26.9 ± 2.5 | – | – | – | – | –
MDRAARCSGASSLPLLLALALGLVILHCVVADGNSTRSPETNGLLCGDPEENCAATTTQSKRKGHFSRCPKQYKHYCIKGRCRFVVAEQTPSCVCDEGYIGARCERVDLFYLRGDRGQILVICLIAVMVVFIILVIGVCTCCHPLRKRRKRKKKEEEMETLGKDITPINEDIEETNIA | – | – | – | – | 5.5 ± 0.31 | 5.88 ± 0.75 | 24.5 ± 1.2 | 23.3 ± 0.42 | –

Source: the supplement of paper PMC11316812
